Holding throughout (details): protein: recombinant; tags: MBP; label: 32P 5' end
Data set [1] has as its target T1, MBP-KLF4 DBD (human, UniProt O43474-1 375-479). The experiment in a line: EMSA; EMSA: 10 mM Tris-HCl pH 7.5, 53 mM NaCl, 1 mM DTT, 0.01% NP40, 5% glycerol, protein inhibitors, RT 30 min; footprinting: 110 ng to 3 ug protein, RT 30 min, 0.3.
Data set [2] deals with T2, MBP-KLF4 K409Q full length (human, UniProt O43474-1 1-479, K409Q). The description is as above.
The target in data set [3] is T3, MBP-KLF4 full length (human, UniProt O43474-1 1-479). Described as above.
T3 sequence (O43474 other isoform, or with tags, fused parts or gaps): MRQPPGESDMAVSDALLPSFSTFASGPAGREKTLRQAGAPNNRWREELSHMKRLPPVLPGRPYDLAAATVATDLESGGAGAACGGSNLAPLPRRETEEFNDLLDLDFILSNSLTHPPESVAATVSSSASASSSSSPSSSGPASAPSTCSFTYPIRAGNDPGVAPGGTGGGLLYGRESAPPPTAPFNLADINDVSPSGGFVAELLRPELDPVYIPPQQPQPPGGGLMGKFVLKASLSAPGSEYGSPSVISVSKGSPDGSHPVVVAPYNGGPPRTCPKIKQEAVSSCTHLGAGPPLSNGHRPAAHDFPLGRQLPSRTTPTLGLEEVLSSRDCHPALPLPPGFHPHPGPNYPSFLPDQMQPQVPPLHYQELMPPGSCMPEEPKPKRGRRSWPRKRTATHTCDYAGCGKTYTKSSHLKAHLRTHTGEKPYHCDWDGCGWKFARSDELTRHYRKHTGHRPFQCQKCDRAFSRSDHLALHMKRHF
A further data set concerns the target MBP-KLF4 K409Q DBD (human, UniProt O43474-1 375-479, K409Q). The experiment in a line: EMSA; stronger than FGF3-201; EMSA: 10 mM Tris-HCl pH 7.5, 53 mM NaCl, 1 mM DTT, 0.01% NP40, 5% glycerol, protein inhibitors, RT 30 min; footprinting: 110 ng to 3 ug protein, RT 30 min, 0.3. (In general: In EMSA bound probe runs differently from free probe, usually more slowly.)

In data set [4] the target is T2, MBP-KLF4 K409Q full length. Described as above.
The target in data set [5] is T1, MBP-KLF4 DBD. Briefly: EMSA; same strong binding as TRH-122; EMSA: 10 mM Tris-HCl pH 7.5, 53 mM NaCl, 1 mM DTT, 0.01% NP40, 5% glycerol, protein inhibitors, RT 30 min; footprinting: 110 ng to 3 ug protein, RT 30 min, 0.3.
For data set [6], the target named is T3, MBP-KLF4 full length. The data set is described as above.

T2 sequence (O43474 other isoform, or with tags, fused parts or gaps K409Q | K409Q K409Q): as the sequence (O43474 other isoform, or with tags, fused parts or gaps) above, with K409Q counted along it
T1 sequence (O43474 409-513): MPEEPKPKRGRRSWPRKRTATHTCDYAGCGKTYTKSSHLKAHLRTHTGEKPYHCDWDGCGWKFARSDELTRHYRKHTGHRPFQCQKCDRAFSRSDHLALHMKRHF
MBP-KLF4 K409Q DBD, sequence (O43474 409-513 K443Q): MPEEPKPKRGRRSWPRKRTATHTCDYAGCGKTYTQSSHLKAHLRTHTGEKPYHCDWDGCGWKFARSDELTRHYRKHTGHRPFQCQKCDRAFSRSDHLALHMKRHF

B1: TRH-122 (dsDNA)
DNA 1: GAGCAGGCGGGCGGGGTCCCGC
DNA 2: GCGGGACCCCGCCCGCCTGCTC
On to B1, for which the binding result (in the data set with MBP-KLF4 DBD [1]; in data set [2]; in the data set with MBP-KLF4 full length [3]) was “binds” each time.

B2: FGF3-201M (dsDNA)
DNA 1: CCTTTAATGGGTGTGTGTCAGC
DNA 2: GCTGACACACACCCATTAAAGG
As to B2, the binding result (with MBP-KLF4 K409Q DBD; in data set [4]) was “binds” throughout.

B3: TRH-122M (dsDNA)
DNA 1: GAGCAGGCGGGCGGGGCCCCGC
DNA 2: GCGGGGCCCCGCCCGCCTGCTC
Take B3: the binding result in the data set with MBP-KLF4 DBD [5] and with MBP-KLF4 full length [6] was “binds” in each case.
